Earlier results in patent publication US8623366B2, “Methods for treating visceral pain by administering antagonist antibodies directed against calcitonin gene-related peptide” (Labrys Biologics, Inc., priority 2009, dated 2014).
Residue numbers refer to the chain shown, from its start. Numbers in names are those of the source.

T1: human α-CGRP (Homo sapiens, UniProt P06881)
T1 sequence (P06881 83-119 limits assumed): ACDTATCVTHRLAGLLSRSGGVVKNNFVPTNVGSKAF

T2: α-rat CGRP (Rattus norvegicus, UniProt P01256)
T2 sequence (P01256 83-119 limits assumed): T1 sequence (P06881 83-119 limits assumed) with A1S, D3N, N25D, K35E

B1: M46: G1 variant: L1 R28N; L2 G50A L56T; H2 E54K A57N S58E H61F; HC-FW3 L99T A100V (antibody, chains of the INN, looked up, variant L:R28N L:G50A L:L56T H:E54K H:A57N H:S58E H:H61F H:L99T H:A100V, V domains shown)
VH: EVQLVESGGGLVQPGGSLRLSCAASGFTFSNYWISWVRQAPGKGLEWVAEIRSKSDNEATFYAEAVKGRFTISRDNAKNSLYLQMNSLRAEDTAVYYCTVYFDYGLAIQNYWGQGTLVTVSS
VL: EIVLTQSPATLSLSPGERATLSCKASKNVTTYVSWYQQKPGQAPRLLIYAASNRYTGIPARFSGSGSGTDFTLTISSLEPEDFAVYYCSQSYNYPYTFGQGTKLEIK
B2: M51: G1 variant: L1 R28N; L2 L56I; H2 E54K A57G; HC-FW3 L99T A100V (antibody, chains of the INN, looked up, variant L:R28N L:L56I H:E54K H:A57G H:L99T H:A100V, V domains shown)
VH: B1 VH with N57G, E58S, F61H
VL: B1 VL with A50G, T56I
B3: M62: G1 variant: L1 R28N T30G; L2 A51H L56T; H2 E54K A57N S58E; HC-FW3 L99T A100V (antibody, chains of the INN, looked up, variant L:R28N L:T30G L:A51H L:L56T H:E54K H:A57N H:S58E H:L99T H:A100V, V domains shown)
VH: B1 VH with F61H
VL: B1 VL with T30G, A50G, A51H
B4: M47: G1 variant: L1 R28N; L2 G50A L56T; H2 E54K A57N S58G; HC-FW3 L99T A100V (antibody, chains of the INN, looked up, variant L:R28N L:G50A L:L56T H:E54K H:A57N H:S58G H:L99T H:A100V, V domains shown)
VH: B1 VH with E58G, F61H
VL: B1 VL
B5: M83: G1 variant: L1 R28N T30V; L2 A51H L56T; H2 E54K A57N S58M H61F; HC-FW3 L99T A100V (antibody, chains of the INN, looked up, variant L:R28N L:T30V L:A51H L:L56T H:E54K H:A57N H:S58M H:H61F H:L99T H:A100V, V domains shown)
VH: B1 VH with E58M
VL: B1 VL with T30V, A50G, A51H
B6: M55: G1 variant: L1 R28N T30A; L2 L56S; H2 E54K A57N S58E E64D; HC-FW3 L99T A100V (antibody, chains of the INN, looked up, variant L:R28N L:T30A L:L56S H:E54K H:A57N H:S58E H:E64D H:L99T H:A100V, V domains shown)
VH: B1 VH with F61H, E64D
VL: B1 VL with T30A, A50G, T56S
B7: M49: G1 variant: L1 R28N; L2 G50A L56T; H2 E54K A57N S58Y H61F; HC-FW3 L99T A100V (antibody, chains of the INN, looked up, variant L:R28N L:G50A L:L56T H:E54K H:A57N H:S58Y H:H61F H:L99T H:A100V, V domains shown)
VH: B1 VH with E58Y
VL: B1 VL
B8: M71: G1 variant: L1 R28N T30G; L2 L56I; H2 E54K A57Y; HC-FW3 L99T A100V (antibody, chains of the INN, looked up, variant L:R28N L:T30G L:L56I H:E54K H:A57Y H:L99T H:A100V, V domains shown)
VH: B1 VH with N57Y, E58S, F61H
VL: B1 VL with T30G, A50G, T56I

What was measured:
[1] = molecular target: T1, human α-CGRP; conditions: Table 6 reproduced from WO2007/054809; cited from earlier work
[2] = molecular target: T2, α-rat CGRP; conditions: Table 6 reproduced from WO2007/054809; cited from earlier work

Molecule	Kd [1]	Kd [2]
M2: G1 variant: HC-FW3 L99A A100R [Clone M2]	3 nM	58 nM
M8: G1 variant: HC-FW3 L99N A100G [Clone M8]	0.58 nM	41.4 nM
M10: G1 variant: HC-FW3 L99S A100S [Clone M10]	1.08 nM	83.9 nM
M15: G1 variant: HC-FW3 L99T A100P [Clone M15]	0.1 nM	63.9 nM
M18: G1 variant: HC-FW3 L99V A100G [Clone M18]	0.44 nM	67.8 nM
B1	3.37 nM	163 nM
B2	0.82 nM	65.6 nM
B3	5.86 nM	242 nM
B4	2.08 nM	457 nM
B5	5.83 nM	
B6	2.99 nM	325 nM
B7	3.72 nM	822 nM
B8		118 nM
